The subject of one test is Steinernema feltiae. The test is described as follows: In-vitro plate assay of Steinernema feltiae juvenile death after direct treatment. The settings on record: Table 23, 40 μL per well (ILEVO 20 μL), water control 3%. In kind it is in vivo. As for the experimental part:
To determine the effects of enzymes on an additional soil-dwelling nematode species (Steinernema feltiae), a NemAttack™ package containing approximately 5 million S. feltiae juveniles was purchased from ARBICO Organics. The nematodes arrived already hatched and dispersed within a powder. To prepare the nematodes for use, an aliquot of the dry nematode mixture was rehydrated in water. The liquid nematode mixture was adjusted to a concentration of 20-30 nematode juveniles per 10 μL. The free enzymes Esterase B (SEQ ID NO: 89) and Chitinase 19F (SEQ ID NO: 182) were produced as described in Example 2.
Potato dextrose agar media containing chloramphenicol and chlortetracycline was prepared and added to sterile twenty-four-well cell culture plates (1 mL per well). The plates were divided according to the pre-determined N-value for each treatment (N=12-24). […]
To quantify the treatments' effects on nematode viability, the nematodes were examined under a dissecting microscope at 20× magnification. Initial (T0) values for the number of live juveniles, number of dead juveniles and total number of juveniles were recorded immediately after preparation of each well. […] Approximately 20-22 hours post addition of juveniles, the plates were evaluated, and the number of live juveniles, dead juveniles and total number of juveniles were recorded. […]

For a further test, the system named is SCN nematodes. Briefly: Nematode death after foliar spray application on strawberry leaf segments. Type of test: in vivo, Heterodera glycines. The settings on record: 0.6% solution of fermentation broth sprayed on strawberry leaf segments; 20 wells; water only 5%. As for the experimental part: To determine whether a nematicidal enzyme can cause nematode death when sprayed as a foliar treatment, a trial was performed using chitinase 19F (SEQ ID NO: 182). The free enzyme was produced as described in Example 2. A SCN hatchery was set up as described in Example 2, except that no bleach sterilization step was performed. Six days later, the concentration of hatched nematodes was determined. Leaves from Quinault strawberry plants (Fragaria x ananassa) were cut into square sections and placed in the wells of a 24-well plate with the abaxial side up. […] Spray solutions were created with water alone and water plus fermentation broth with chitinase 19F (SEQ ID NO: 182). For the base strain control and chitinase solutions, 0.094 mL of fermentation broth was added to 15 mL of water (0.6% solution) to model a field spray application of 8 fl oz. per acre. Treatments were added to a small spray bottle and each leaf segment was sprayed approximately 3 times. After the leaves had dried, approximately 100 nematodes were added to each leaf segment. To assess the number of nematodes that were alive at the start of the experiment hours, 500 μL of sterile water was added to 4 wells of each treatment, and the leaf segment was washed and removed. The number of alive and dead nematodes were counted for each well, and the average percentage of dead nematodes were calculated for each treatment. […]

Test [1] concerns Btk resistant Diamondback moth. Briefly: Diet-surface overlay (DSO) bioassay on Btk resistant Diamondback moth. The settings on record: number of individuals, n = 32, 7 days. In kind it is in vivo, Plutella xylostella. Here is the method:
Diet-surface overlay bioassays are conducted with artificial diet mixes without antibiotics in 1.5 cm^2 cell bioassay trays(s). Artificial diets are commercially available from Southland Products Inc. Diets were prepared by dispersing 0.5 mL of molten diet to each 1.5 cm^2 cell. After solidification, 0.1 mL enzyme treatments were dispersed on top of diet in each cell and the tray was gently rocked in an orbital shaker to spread the liquid uniformly over the diet surface. Trays were placed under clean airflow until the surface of each cell was uniformly dried. One or two 16-cell sections were used per treatment (the number in larvae treated was 16 or 32).
One healthy first instar larva was placed into each treatment cell, each 16-cell section was covered with a re-sealable lid and incubated at 27° C. and light-dark period of 16:8 hrs. After 7 days, and according to the species, the number of individuals in the following developmental categories was recorded.
Diamondback moth (Plutella xylostella): Dead Larva (lack of movement), Larva Stage I (≤50% relative size), Larva Stage II (100% relative size, full size), Early Pupa (light green color), Late Pupa (light-dark brown color), and Adult.
Negative/untreated controls were treated with filtered water and positive controls were treated with lethal doses of Bacillus thuringiensis subsp. Kurstaki (Btk) spores at 1000 ppm.
However, both neutral proteases reduced the number of individuals reaching adult stage.
The effect of lipase (10× enzyme rate) and free lipases were tested on a Diamondback Moth Btk resistant strain. Free Lipases from Burkholderia cepacia (Bc) and Pseudomonas fluorescens (Pf) were tested along with Lipase (SEQ ID NO: 76) and the results are shown below in Table 45.

This is an account of results in patent publication US20260231954A1, “PESTICIDAL ENZYMES FOR USE ON NEMATODES, INSECTS, AND MOLLUSKS” (priority 2023, published 2026).

B1: Esterase B (SEQ ID NO: 89): Bacillus subtilis Esterase (EstB without signal sequence) (protein, listed as Bacillus subtilis)
chain: ESVHNPVVLVHGISGASYNFFAIKNYLISQGWQSNKLYAIDFYDKTGNNLNNGPQLASYVDRVLKETGAKKVDIVAHSMGGANTLYYIKYLGGGNKIQNVVTLGGANGLVSSTALPGTDPNQKILYTSIYSLNDQIVINSLSRLQGARNIQLYGIGHIGLLSNSQVNGYIKEGLNGGGLNTN
modifications: Esterase (EstB H191 without signal sequence)
Consider B1, for which the “Difference in Percent Death of Nematodes for 0 to 20 Hours” value in the test with Steinernema feltiae is given as “significantly increased the difference in percentage of S. feltiae juveniles that died”; in the test with Steinernema feltiae (listed as Esterase B(SEQ ID NO: 89)), 33%.

B2: Chitinase 19F (SEQ ID NO: 182): Streptomyces coelicolor Chitinase F (Chi19F) (protein)
chain: ASCSSYHAWSADANYNTGDIVRYTDGKAYIAEHANPGYDPLISTWYWDPYACDGGSQTPVGNFVVSEAQFNQMFPGRNSFYTYSGLTAALSAYPGFANTGSDTTKKQEAAAFLANVSHETGGLVYIVEQNTANYPHYCDWNQPYGCPAGQAAYYGRGPIQLSWNFNYKAAGDALGIDLLGNPWLVQNDAAVAWKTGLWYWNTQSGPGTMTPHNAMVNGAGFGQTIRSINGSLECDGKNPAQVQSRVTKYQQFAQILGVSPGGNLYC
modifications: Chitinase F (Chi19F); Streptomyces coelicolor
As to B2, the “Average percentage of dead nematodes at 24 hours” value with SCN nematodes was “increased significantly above the control treatments”. The “Dead Larva” value in test [1] (Table 47, chitinases, rate in mU/mL diet column) was determined as 2. Also, in test [1] (Table 47), the Adult was determined as 1, the “Early Pupa” value is recorded as 4, the “Larva Stage I” value came to 2 and the “Larva Stage II” value is on record as 1. The “Late Pupa” value in test [1] (Table 47) stood at 22.
